This data set is described as follows: yeast display, Sf9 membrane polyspecificity reagent, FACS + sequencing; frameworks hold sequencing errors. The gist of the method: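 Galactose-induced (36–48 hours) yeast carrying a synthetic nanobody display library were exposed to 10% biotinylated, detergent-solubilized Sf9 membrane reagent at 4 °C for 1 hour. FACS followed streptavidin microbead enrichment, using low and high (top ~1%) gates for expression (anti-HA) and reagent binding (streptavidin). Colony PCR, MiSeq 2 × 250 sequencing and CDR-length filtering followed. Labels for polyreactivity reflect the gate of origin.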
On to “QVQLVESGGGLVQAGGSLRLSCAASGFIFIKYAMGWYRQAPGKERELVAGITRSGSSTYYADSVKGRFTISRDNAKNTVYLQMNSLKPEDTAVYYCAAASGSSVGRYGYWGQGTQVTVSS”, for which the “polyreactivity (PSR sort gate)” value is on record as “high polyreactivity”.

For the sequence “QVQLVESGGGLVQAGGSLRLSCAASGFIFILNAMGWYRQAPGKERELVAGISISGGSTYYADSVKGRFTISRDNAKNTVYLQMNSLKPEDTAVYYCAAPDGDTRVSDQAYDYWGQGTQVTVSS”, the “polyreactivity (PSR sort gate)” value is listed as “low polyreactivity”.

As to “QVQLVESGGGLVQAGGSLRLSCAASGFIFIRNAMGWYRQAPGKEWELVAAISSGGRTYYADSVKGRFTISRDNAKNTVYLQMNSLKPEDTAVYYCAARVITHYGRYYYWGQGTQVTVSS”, the “polyreactivity (PSR sort gate)” value is “high polyreactivity”.

For the sequence “QVQLVESGGGLVQAGGSLRLSCAASGFIFITVNAMGWYRQAPGKEREFVAAITRSGTGTYYADSVKGRFTISRDYAKYTVFLQMNSLKPEDTAVSYCAADATSTGAYDYWGQGTQVTVSS”, the “polyreactivity (PSR sort gate)” value is listed as “low polyreactivity”.

Consider “QVQLVESGGGLVQAGGSLRLSCAASGFIFITYDMGWYIQAPGKERELVAVITSGGTTNYADSVKGRFTIARDNAKNTVYLQMNSLKPEDTAVYYCNRDSVLDPGNPNPYGFDYWGQGTQVTVSS”, for which the “polyreactivity (PSR sort gate)” value was “low polyreactivity”.

For “QVQLVESGGGLVQAGGSLRLSCAASGFIFIYYAMGWYRQAPGKERELVATINGITGSTYYADSVKGRFTISRDNAKNTVYLQMNSLKPEDTAVYYCAKVPRKYRAWMDYWGQGTQVTVSS”, the “polyreactivity (PSR sort gate)” value was “high polyreactivity”.

“QVQLVESGGGLVQAGGSLRLSCAASGFIFKANAMGWYRQAPGKERELVAVITRRGGSTYYADSVKGRFTISRDNAKNTVYLQMNSLKPEDTAVYYCAAKSYTYGYNYWGQGTQVTVSS”: the “polyreactivity (PSR sort gate)” value is “high polyreactivity”.

Regarding “QVQLVESGGGLVQAGGSLRLSCAASGFIFKAYAMGWYRQAPGKERELVASITSGDSTNYADSVKGRFTISRDNAKNTVYLQMNSLKPEDTAVYYCNADGWRWHRRKWVYGYDYWGQGTQVTVSS”, the “polyreactivity (PSR sort gate)” value is listed as “low polyreactivity”.

On to “QVQLVESGGGLVQAGGSLRLSCAASGFIFKFYTMGWYRQAPGKERELVAVISGSGGRTYYADSVKGRFTISRDNAKNTVYLQMNSLKPEDTAVYYCARYGPYQSSYHYDYWGQGTQVTVSS”, for which the “polyreactivity (PSR sort gate)” value is reported as “high polyreactivity”.

“QVQLVESGGGLVQAGGSLRLSCAASGFIFKGYAMGWYRQAPGKERELVAAISKGGGNTYYADSVMGRFSISRDNAKNTVYLQMNSLKPEDTAVYYCAAVPTRYRSYTYTYGGYNYWGQGTQVTVSS”: the “polyreactivity (PSR sort gate)” value was “high polyreactivity”.

As to “QVQLVESGGGLVQAGGSLRLSCAASGFIFKGYDMGWYRQAPGKEREMVAAITSGSTNYADSVKGRFTNSRDNAKNTVYLQMNSVKPEDTAVYYCNAELGRATLYPRVFIERGGYWGQGTQVNVSS”, the “polyreactivity (PSR sort gate)” value is recorded as “low polyreactivity”.

For “QVQLVESGGGLVQAGGSLRLSCAASGFIFKKYVMGWYRQAPGKERELVAGISRSGGSTYYADSVKGRFTISRDNAKNTVYLQMNSLKPEDTAVYYCAAYIYQSPTRGGGYWGQGTQVTVSS”, the “polyreactivity (PSR sort gate)” value is recorded as “high polyreactivity”.

In the case of “QVQLVESGGGLVQAGGSLRLSCAASGFIFKPNAMGWYRQAPGKERELVAAITWGGDNTYYADSVKGRFTISRDNAKNTVYLQMNSLKPDDTAVYYCAAEWKFHSDASYIYDYWGQGTQVTVSS”, the “polyreactivity (PSR sort gate)” value is reported as “high polyreactivity”.

As to “QVQLVESGGGLVQAGGSLRLSCAASGFIFKPYAMGWYRQAPWKERELVAAITVNGGTTYYADSVKGRFTISRDNAKNTVYLQMNSLKPEDTAVYYCNRGRPGGPSWYHYDYWGQGTQVTVSS”, the “polyreactivity (PSR sort gate)” value is given as “high polyreactivity”.

Consider “QVQLVESGGGLVQAGGSLRLSCAASGFIFKRSAMGWYRQAPGKERELVAAITLSGGDTYYADSVKGRFTISRDNAKNNVYLQMNSLKPEDTAVYYCNAPYIGENYYWGQGTQVTVSS”, for which the “polyreactivity (PSR sort gate)” value is “high polyreactivity”.

As to “QVQLVESGGGLVQAGGSLRLSCAASGFIFKRYAMGWYRQAPGKERELVAAITSGGSTHYADSVKGRFTISRDNAKNTVYFQMNSLKPEDTAVYYCASRRYKWGVRYDYWGQGTQVTVSS”, the “polyreactivity (PSR sort gate)” value was “high polyreactivity”.

In the case of “QVQLVESGGGLVQAGGSLRLSCAASGFIFKSNAMGWYRQAPGKERELVAAITKRGGSTYYADSVKGRFTISRDNAKNTVYLQMNSLKPEDTAVYYCAVRKPYSRYGGFDYWGQGTQVTVSS”, the “polyreactivity (PSR sort gate)” value was “high polyreactivity”.

Consider “QVQLVESGGGLVQAGGSLRLSCAASGFIFKSYAMGWYRQAPGKERELVAAITSGGSTYYADSVKGRFTISRDNAKNTVYLQMNSLKPEDTAVYYCATRYRFGWGLSWYDYWGQGTQVTVSS”, for which the “polyreactivity (PSR sort gate)” value is recorded as “high polyreactivity”.

With “QVQLVESGGGLVQAGGSLRLSCAASGFIFLGNAMGWYRQAPGKERELVAAISSGGSTYADSVKGRFTISRDNAKNTVYLQMNSLKPEDTAVNYCAVDRAFRAQNYHEYDYWGQGTQVTVSS”, the “polyreactivity (PSR sort gate)” value is recorded as “low polyreactivity”.

Turning to “QVQLVESGGGLVQAGGSLRLSCAASGFIFLINAMGWYRQAPGKERELVAGITSGGGNTYYADSVKGRFTISRDNAKNTVYLQMYSLKPEDTAVFYCAARLFDYWGQGTQVTVSS”, the “polyreactivity (PSR sort gate)” value is on record as “low polyreactivity”.

Take “QVQLVESGGGLVQAGGSLRLSCAASGFIFLQNAMGWYRQAPGKERELVAVIRLSSCSTYYADSVKGRFTISRDNAKNTVYFEMNSLKPEDTAVYYCAARGYYSGQTTIGMDYWGQGTQVTVSS”: the “polyreactivity (PSR sort gate)” value is recorded as “low polyreactivity”.

Turning to “QVQLVESGGGLVQAGGSLRLSCAASGFIFLSNGMGWYRPAPGKERELVAAITSGGNTNYADSVTGRFTISRDNAKTTVYLQMNSLKPEDTAVYYCAAYWIFITYFGYYSEYAYWGQGTQVTVSS”, the “polyreactivity (PSR sort gate)” value is listed as “low polyreactivity”.

For the sequence “QVQLVESGGGLVQAGGSLRLSCAASGFIFLVNAMGWYRHAPGKERELVAAITTSGASTYYADSVKGRFTISRDNAKNTVYLQMNSLKPEDTAVYYCAAGSYARPEYGYWGQGTQVTVSS”, the “polyreactivity (PSR sort gate)” value is reported as “low polyreactivity”.

“QVQLVESGGGLVQAGGSLRLSCAASGFIFLWYAMGWYRQAPGKERELVAAISSGGGRTHYADSVKGRFTISRDNAKNTVYLQMNSLKPEDTAVYYCAAALRGQASRFDYWGQGTKVTVSS”: the “polyreactivity (PSR sort gate)” value was “high polyreactivity”.

As for “QVQLVESGGGLVQAGGSLRLSCAASGFIFLYYAMGWYRQAPGKERELVAAISRSGGRTYYADSVKGRFTISRDNAKNTVYLQMNSLKPEDTAVYYCAADRLGSISGYDYWGQGTQVTVSS”, the “polyreactivity (PSR sort gate)” value was “high polyreactivity”.

Consider “QVQLVESGGGLVQAGGSLRLSCAASGFIFNGNAMGWYIQAPGKERELVVAISKSGGRTYYADSVKGRFTISRDNAKYTVYLQMNSLKPEDTAVYDCARRTYTRMYWGQGTQVTVSS”, for which the “polyreactivity (PSR sort gate)” value is on record as “high polyreactivity”.

Consider “QVQLVESGGGLVQAGGSLRLSCAASGFIFNHYAMGWYRQAPGKEREFVAAISWSGGSTYYADSVKGRFTISRDNAKNTVYLQMNSLKPEDTAVYYCAASYNCLWHGDYDYWGQGTQVTVSS”, for which the “polyreactivity (PSR sort gate)” value was “low polyreactivity”.

Take “QVQLVESGGGLVQAGGSLRLSCAASGFIFNIYAMGWYRQAPGKERELVAAITFSGGSTYYADSVKGRFTISRDNAKNTVYLQKNSLKPEDTAVYYCAADYLSEYTTYDYWGQGTQVTVSS”: the “polyreactivity (PSR sort gate)” value was “low polyreactivity”.

“QVQLVESGGGLVQAGGSLRLSCAASGFIFNKYAMGWYRQAPGKERELVATIRRDGSTNYADSVKGRFTISRDNAKNTVYLQMNSLIPEDTAVYYCAVRPYYWSRDYYWGQGTQVTVSS”: the “polyreactivity (PSR sort gate)” value is recorded as “high polyreactivity”.

Consider “QVQLVESGGGLVQAGGSLRLSCAASGFIFNRYAMGWYRQAPGKERELVATITRRGGRTYFADSVKGRFTISRDNAKNTVYLQMNSLKPEDTAVYYCNADPNVPVETFDYWGQGTQVTVSS”, for which the “polyreactivity (PSR sort gate)” value is listed as “high polyreactivity”.

Take “QVQLVESGGGLVQAGGSLRLSCAASGFIFNRYVMGWYRQAPGKERELVAVISRGGSTSYADSVKGRFTISRDNAKNTVYLQMNSLKPEDTAVYYCNAVHSRVYYSLGYGYWGLGTQVTVSS”: the “polyreactivity (PSR sort gate)” value was “high polyreactivity”.

As to “QVQLVESGGGLVQAGGSLRLSCAASGFIFPAYTMGWYRQAPGKERELVAAITWSGGSTYYADSVKGRFTISRDNAKNTVYLQMKSLKPEDTAVYYCAAYVSRKYRKGPRFAYDYWGQGTQVTVSS”, the “polyreactivity (PSR sort gate)” value is “high polyreactivity”.

“QVQLVESGGGLVQAGGSLRLSCAASGFIFPDDAMGWYSQAPGKERELVASINRSGGSTNYADSVKGRFTISRDHAKNTDYLQMNSLKPEDTAVYYCAPDFSFLGNASARLDYDYWGQGTQVTGSS”: the “polyreactivity (PSR sort gate)” value is on record as “low polyreactivity”.

As to “QVQLVESGGGLVQAGGSLRLSCAASGFIFPEYAMGWYRQAPGKERELVAAINWSGGNTYYADSVKGRFTISRDNAKNTVYLQMNSLKPEDTAVYYCNVDEWVTDDDYWGQGTEVTVSS”, the “polyreactivity (PSR sort gate)” value was “low polyreactivity”.

On to “QVQLVESGGGLVQAGGSLRLSCAASGFIFPEYAMGWYRQAPGKERELVAAINWSGGNTYYADSVKGSFTISRDNAKNTVYLQMNSLKPEDTAVYYCNVDDWVTDDDYWGQGTQVTVSS”, for which the “polyreactivity (PSR sort gate)” value was “low polyreactivity”.

Take “QVQLVESGGGLVQAGGSLRLSCAASGFIFPFYAMGWYRQAPGKEREFVAAITLSSGSTYYADSVKGRFTISRDNAKNTVFLQMNSLKPEDTAVYYCNADYNVYLYYGYDYWGQGTHVTVSS”: the “polyreactivity (PSR sort gate)” value was “low polyreactivity”.

Regarding “QVQLVESGGGLVQAGGSLRLSCAASGFIFPFYAMGWYRQAPGKERELVAVIRTSSDRTYYADSVKGRFTISRDNAKNTVYLQMNSLKPEDTAVYYCAAETYRLFDYWGQGTQVTVSS”, the “polyreactivity (PSR sort gate)” value is reported as “low polyreactivity”.

As to “QVQLVESGGGLVQAGGSLRLSCAASGFIFPGYAMGWYRQAPGKERELVAAISRSGGITYYADSVKGRFTISRDNAKNTVYLQMNSLKPEDTAVYYCAARDRVRDDYWGQGTQVTVSS”, the “polyreactivity (PSR sort gate)” value was “high polyreactivity”.

For “QVQLVESGGGLVQAGGSLRLSCAASGFIFPLYTMGWYRQAPGKERELVAAISVTGGSTYYADSVKGRFTISRDNAKNTVYLQMNSLKPEDTAVYYCNAYLFFLNRVWSFDYWGQGTQVTVSS”, the “polyreactivity (PSR sort gate)” value is listed as “high polyreactivity”.

As to “QVQLVESGGGLVQAGGSLRLSCAASGFIFPRNVMGWYRQAPGKERELVAAISRSGGSTYYADSVKGRFTISPDNVKNTVFLQMNSLIPEDTAVYYFAKRTFYNGEYWGQGTQVTVSS”, the “polyreactivity (PSR sort gate)” value is reported as “low polyreactivity”.

In the case of “QVQLVESGGGLVQAGGSLRLSCAASGFIFPRYVMGWYRQAPGKERELVAAITQGGGSTYYADSVKGRFTISRDNAKNTVYLQMNSLKPEDTAVYYCAAEVWRSYGYWGQGTQVTVSS”, the “polyreactivity (PSR sort gate)” value is given as “low polyreactivity”.

Values taken from the nanobody polyreactivity screen of Harvey et al. (2022).
